From publication PMC13365404 come the findings set out here.

The stoichiometry N is a count of units in the complex or per binding partner.

The target in this assay is EBOV GP ectodomain for structural work (EBOV Mayinga, residues 33-651, mucin-like domain deleted, double Strep-tag) (Orthoebolavirus zairense (Ebola virus, EBOV), Mayinga) (UniProt Q05320). As to the kind of experiment: cryo-EM structure.

With “EBOV GP ectodomain for structural work (EBOV Mayinga, residues 33-651, mucin-like domain deleted, double Strep-tag) (from UniProt Q05320 33-651) (domain or fragment)”, the stoichiometry N is 3.
